Experimental data: US20260243766A1 (CHILDREN S HOSPITAL OF PHILADELPHIA, published 2026)

Target: T1, A*23:01/PHOX2B (human, UniProt P61769 21-119, limits assumed)
T1 construct: The preparation of this complex is not described; also called HLA-A*23:01/PHOX2B complex
Assay: SPR

T1 sequence (P61769 21-119 limits assumed, chain 3 of 2, other chains not shown): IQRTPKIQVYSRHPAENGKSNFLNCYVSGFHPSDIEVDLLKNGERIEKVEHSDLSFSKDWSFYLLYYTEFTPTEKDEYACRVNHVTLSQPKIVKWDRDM

B1: 10LH single-chain antibody fragment (Clone 10 (RU141-10) scFv) (scFv)
scFv: SRNGGDGQSVLTQPPSVSVSPGQTASITCSGDSLGNKYACWYQQKPGQSPVLVIYQDSKRPSGIPERFSGSNSGNTATLTISGTQAMDEADYYCQAWDSSRGYTVVFGTGTKVTVSSQTGGSGGGGSGGGGSGGGGSEVQLLESGGGLVQPGGSLRLSCAASGFTFDSYAMSWVRQAPGKGLEWVSAISGYGGSTYYADSVKGRFTISRDNSKNTLYLQMNSLRAEDTAVYYCAKYTYFLDAFDIWGQGTMVTVSSS
notes: also called Clone 10LH; scFV 10LH
  Kd: ~20 µM
